Experimental data reported in patent US20240182596A1 (TUBULIS, published 2024).
Each block holds one binder with its values, some of them ahead of it.

Key:
[1] = biological target: T1, purified recombinant human Napi2b antigen consisting of Napi2b-extracellular-loop2 expressed as … (human, UniProt O95436 234-362, limits assumed); assay: ELISA, coated Napi2b-extracellular-loop2-Fc-6-His, apparent KD from one-site fit
T1 construct: Expressed in Expi-HEK293 cells; also called immobilized human NaPi2B; not shown: Fc part; 6-His tag
T1 sequence: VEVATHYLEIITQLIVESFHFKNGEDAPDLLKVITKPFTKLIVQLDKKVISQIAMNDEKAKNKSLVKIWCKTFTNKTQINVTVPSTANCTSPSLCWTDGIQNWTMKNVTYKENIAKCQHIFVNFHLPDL

[2] = biological target: T2, human NaPi2b on NaPi2b-positive cell lines OVCAR-3 and HCC-78 (human, UniProt O95436 1-690); assay: flow cytometry on OVCAR-3 cells; table column Binding KD (nmol/L), FACS (OVCAR-3)
T2 construct: Endogenous protein
T2 sequence: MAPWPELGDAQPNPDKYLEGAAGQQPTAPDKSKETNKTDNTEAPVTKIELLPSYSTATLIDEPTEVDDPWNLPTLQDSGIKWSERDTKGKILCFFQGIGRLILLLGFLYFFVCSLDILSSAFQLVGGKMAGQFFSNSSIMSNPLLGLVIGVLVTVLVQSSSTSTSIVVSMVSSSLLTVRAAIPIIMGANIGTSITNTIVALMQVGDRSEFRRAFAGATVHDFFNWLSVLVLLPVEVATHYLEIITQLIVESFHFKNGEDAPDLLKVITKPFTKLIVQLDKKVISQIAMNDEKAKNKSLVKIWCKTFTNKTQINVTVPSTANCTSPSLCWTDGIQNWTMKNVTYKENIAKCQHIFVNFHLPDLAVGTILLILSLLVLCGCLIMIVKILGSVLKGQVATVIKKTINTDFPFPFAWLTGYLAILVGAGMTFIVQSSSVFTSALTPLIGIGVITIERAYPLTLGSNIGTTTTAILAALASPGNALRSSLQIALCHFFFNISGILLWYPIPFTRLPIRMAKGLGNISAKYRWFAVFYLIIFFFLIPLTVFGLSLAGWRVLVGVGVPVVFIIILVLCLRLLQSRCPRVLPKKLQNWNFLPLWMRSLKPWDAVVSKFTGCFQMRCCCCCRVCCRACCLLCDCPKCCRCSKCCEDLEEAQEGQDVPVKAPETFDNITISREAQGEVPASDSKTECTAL

[3] = biological target: T1, purified recombinant human Napi2b …; assay: ELISA on the isolated immobilized protein; table column Binding KD (nmol/L), ELISA
[4] = biological target: T1, purified recombinant human Napi2b …; assay: ELISA on immobilized recombinant human Napi2b extracellular loop 2-Fc-6-His, HRP anti-human kappa detection
[5] = biological target: T3, HEK293 rat-NaPi2B-mCherry (Rattus norvegicus, UniProt Q9JJ09); assay: flow cytometry on HEK293 cells stably expressing rat full-length NaPi2b-mCherry, Alexa-dye anti-human IgG H+L secondary antibody, MFI ratio, one-site specific binding fit; the Kd table prints no unit, the concentration axis is in nM
T3 construct: full-length mCherry fusion stably expressed on HEK293 cells; also called rat full-length NaPi2b-mCherry on HEK293 cells
T3 sequence (target on cells, looked up): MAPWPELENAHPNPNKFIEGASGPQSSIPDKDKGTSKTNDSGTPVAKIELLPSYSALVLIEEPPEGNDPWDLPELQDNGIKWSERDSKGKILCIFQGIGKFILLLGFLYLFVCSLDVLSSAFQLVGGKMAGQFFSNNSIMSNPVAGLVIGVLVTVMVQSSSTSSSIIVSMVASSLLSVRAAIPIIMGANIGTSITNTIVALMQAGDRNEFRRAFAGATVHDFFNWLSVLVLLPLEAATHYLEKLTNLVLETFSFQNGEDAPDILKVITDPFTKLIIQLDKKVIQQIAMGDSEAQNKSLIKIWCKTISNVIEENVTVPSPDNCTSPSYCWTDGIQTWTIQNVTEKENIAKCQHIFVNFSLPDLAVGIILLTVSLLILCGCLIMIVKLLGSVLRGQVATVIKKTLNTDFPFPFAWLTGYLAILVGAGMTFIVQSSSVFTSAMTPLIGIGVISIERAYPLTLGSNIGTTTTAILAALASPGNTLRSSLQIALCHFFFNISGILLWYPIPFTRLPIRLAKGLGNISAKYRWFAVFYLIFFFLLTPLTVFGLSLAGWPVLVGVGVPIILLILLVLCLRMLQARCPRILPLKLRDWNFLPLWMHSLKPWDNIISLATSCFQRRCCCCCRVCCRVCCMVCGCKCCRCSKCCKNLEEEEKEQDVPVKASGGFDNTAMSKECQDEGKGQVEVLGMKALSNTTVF

[6] = biological target: T4, human Napi2b-mCherry on HEK293 cells (human, UniProt O95436 1-690); assay: flow cytometry on HEK293 cells stably expressing human full-length NaPi2b-mCherry, Alexa-dye anti-human IgG H+L secondary antibody, MFI ratio, one-site specific binding fit; the Kd table prints no unit, the concentration axis is in nM
T4 construct: also called Napi2b (SLC34A2); HEK293 cells overexpressing Napi2b
T4 sequence: T2 sequence

[7] = biological target: T5, HEK293 cyno-NaPi2B-mCherry (Macaca fascicularis, UniProt A0A2K5UHY1); assay: flow cytometry on HEK293 cells stably expressing cynomolgus full-length NaPi2b-mCherry, Alexa-dye anti-human IgG H+L secondary antibody, MFI ratio, one-site specific binding fit; the Kd table prints no unit, the concentration axis is in nM
T5 construct: full-length mCherry fusion stably expressed on HEK293 cells; also called cynomolgus full-length NaPi2b-mCherry on HEK293 cells
T5 sequence (target on cells): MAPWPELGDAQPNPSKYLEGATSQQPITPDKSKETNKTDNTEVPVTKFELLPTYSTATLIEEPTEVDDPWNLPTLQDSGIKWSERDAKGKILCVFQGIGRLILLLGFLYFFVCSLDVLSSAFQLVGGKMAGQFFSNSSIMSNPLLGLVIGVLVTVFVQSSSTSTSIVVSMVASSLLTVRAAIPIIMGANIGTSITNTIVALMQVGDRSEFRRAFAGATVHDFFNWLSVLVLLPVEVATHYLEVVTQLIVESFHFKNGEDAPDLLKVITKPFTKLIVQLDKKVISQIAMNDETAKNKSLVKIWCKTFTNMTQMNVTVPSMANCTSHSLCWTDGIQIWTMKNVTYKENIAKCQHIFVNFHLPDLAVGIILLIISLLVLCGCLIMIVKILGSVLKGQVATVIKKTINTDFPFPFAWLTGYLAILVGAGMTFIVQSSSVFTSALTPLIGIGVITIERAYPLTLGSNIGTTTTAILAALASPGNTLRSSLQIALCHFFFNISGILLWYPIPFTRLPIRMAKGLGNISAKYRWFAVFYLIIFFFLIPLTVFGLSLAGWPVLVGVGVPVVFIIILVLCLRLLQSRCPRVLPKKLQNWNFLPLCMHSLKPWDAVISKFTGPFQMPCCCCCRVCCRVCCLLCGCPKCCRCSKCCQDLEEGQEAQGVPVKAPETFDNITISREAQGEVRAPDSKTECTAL

[8] = biological target: T4, human Napi2b-mCherry on HEK293 cells; assay: flow cytometry on HEK293 cells stably expressing human full-length NaPi2b-mCherry, Alexa-dye anti-human IgG H+L secondary antibody, MFI ratio, one-site specific binding fit; the Kd table prints no unit, the concentration axis is in nM; second experiment on human cells, run beside the rat cells of FIG. 3D
[9] = biological target: T6, recombinant human FcRn (FcγRn-SmBiT, Lumit assay) (human, UniProt P55899 24-297; P61769 21-119); assay: Lumit FcRn Binding Immunoassay (Promega), competition with Tracer-LgBiT for FcRn-SmBiT, n=1
T6 construct: Kit reagent (Promega); not shown: SmBiT label of the kit

[10] = biological target: T7, recombinant human FcγRI (FcγR-SmBiT, Lumit assay) (human, UniProt P12314 16-292); assay: Lumit FcγRI Binding Immunoassay (Promega), competition with Tracer-LgBiT for FcγRI-SmBiT, n=1
T7 construct: Kit reagent (Promega); also called FcγRI (CD64); not shown: SmBiT label of the kit

[11] = biological target: T8, recombinant hexameric C1q complement protein (human) (human, UniProt P02745 23-245; P02746 28-253; P02747 29-245); assay: HTRF Human C1q Binding Kit (Cisbio), HTRF ratio at 70 nM antibody with the diluent-only background subtracted
T8 construct: also called complement factor C1q

FcγRIIa (CD32) (H131) = biological target: T9, FcγRIIa (CD32) (H131) (Fused to the SmBiT luciferase fragment (Promega Lumit reagent), not carried in the letters); assay: Lumit FcγRIIa (H131) Binding Immunoassay (Promega), left panel FcγRIIa (CD32) (H131), competition with Tracer-LgBiT, n=1
T9 construct: m20 joins both polymorphic variants; also called H131 variant of m20; not shown: SmBiT tag (and any linker or purification tag) of Promega's FcγR-SmBiT fusion
T9 chain: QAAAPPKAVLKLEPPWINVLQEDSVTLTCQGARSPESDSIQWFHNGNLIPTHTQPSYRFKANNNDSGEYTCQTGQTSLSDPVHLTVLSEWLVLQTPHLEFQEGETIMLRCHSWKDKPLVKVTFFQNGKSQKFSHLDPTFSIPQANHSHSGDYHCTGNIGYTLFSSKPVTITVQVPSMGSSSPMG

FcγRIIIa (CD16) (V158) = biological target: T10, FcγRIIIa (CD16) (V158) (Homo sapiens, UniProt P08637); assay: Lumit FcγRIIIa (V158) Binding Immunoassay (Promega), left panel FcγRIIIa (CD16) (V158), competition with Tracer-LgBiT, n=1
T10 construct: m21 joins both polymorphic variants; also called V158 variant of m21

- Kd [1]: 0.0221 µg/mL
- Kd [2]: 10.8 nM
- Kd [3]: 0.147 nM
- EC50 (read off the curve) [4]: ~0.02 µg/mL
- Kd [5]: 6.88 nM
- Kd [6]: 5.43 nM
- Kd [7]: 4.48 nM
- Kd [8]: 2.85 nM
B1: parental mAb (parental anti-NaPi2b antibody) (antibody, human IgG1, kappa, L234A L235A, V domains shown)
VH: EVQLVQSGAEVVKPGASVKMSCKASGYTFTGYNIHWVKQAPGQGLEWIGAIYPGNGDTSYKQKFRGRATLTADTSTSTVYMELSSLRSEDSAVYYCARGETARATFAYWGQGTLVTVSS
VL: DIQMTQSPSSLSASVGDRVTITCSASQDIGNFLNWYQQKPGKTVKVLIYYTSSLYSGVPSRFSGSGSGTDYTLTISSLQPEDFATYYCQQYSKLPLTFGQGTKLELKR
notes: also called parental antibody

- IC50 (read off the curve) [9]: ~3 µg/mL
- IC50 (read off the curve) [10]: ~0.02 µg/mL
- binding result [11]: binds
- IC50 (read off the curve) (FcγRIIa (CD32) (H131)): ~1 µg/mL
- IC50 (read off the curve) (FcγRIIIa (CD16) (V158)): ~2 µg/mL
B2: Fc-wildtype AV25 (AV25 HC-wt) (antibody)
heavy: not shown
light: DIQMTQSPSSLSASVGDRVTITCSASQDIGNFLNWYQQKPGKTVKVLIYYASSLYSGVPSRFSGSGSGTDYTLTISSLQPEDFATYYCQQYSKLPLTFGQGTKLELKRTVAAPSVFIFPPSDEQLKSGTASVVCLLNNFYPREAKVQWKVDNALQSGNSQESVTEQDSKDSTYSLSSTLTLSKADYEKHKVYACEVTHQGLSSPVTKSFNRGEC
notes: IgG1 with wild-type Fc (L234, L235); also called AV25-wt
